Where two headings read alike, the source gives them in different places.

Experiment [1] concerns the target cynomolgus monkey PD-L1 on CHO-K1 cells overexpressing cynomolgus monkey PD-L1 (cynomolgus monkey) (UniProt G7PSE7). Put plainly: flow cytometry on CHO-K1 cells overexpressing cynomolgus monkey PD-L1 (CHO-K1/cynoPD-L1); isotype control, EC50 given as N.A. Background: A flow cytometer gives signals particle by particle.
For experiment [2], the target named is human PD-L1 on CHO-K1 cells overexpressing human PD-L1 (human) (UniProt Q9NZQ7). Kind of experiment: flow cytometry on CHO-K1 cells overexpressing human PD-L1 (CHO-K1/hPD-L1); isotype control, EC50 given as N.A.
Experiment [3] has as its target cynomolgus monkey PD-L1 on CHO-K1 cells overexpressing cynomolgus monkey PD-L1 (cynomolgus monkey) (UniProt G7PSE7). Put plainly: flow cytometry on CHO-K1 cells overexpressing cynomolgus monkey PD-L1 (CHO-K1/cynoPD-L1); isotype control, EC50 given as N.A. This is another data set of the same source.
Experiment [4] concerns the target human PD-L1 on CHO-K1 cells overexpressing human PD-L1 (human) (UniProt Q9NZQ7). Put plainly: flow cytometry on CHO-K1 cells overexpressing human PD-L1 (CHO-K1/hPD-L1); isotype control, fit value printed for a curve that stays at the baseline [continued) D].
The target in experiment [5] is cynomolgus monkey PD-L1 on CHO-K1 cells overexpressing cynomolgus monkey PD-L1 (cynomolgus monkey) (UniProt G7PSE7). Put plainly: flow cytometry on CHO-K1 cells overexpressing cynomolgus monkey PD-L1 (CHO-K1/cynoPD-L1); isotype control, EC50 given as N.A. This is another data set of the same source.
The target of experiment [6] is human PD-L1 on CHO-K1 cells overexpressing human PD-L1 (human) (UniProt Q9NZQ7). Kind of experiment: flow cytometry on CHO-K1 cells overexpressing human PD-L1 (CHO-K1/hPD-L1); isotype control [continued) D].

Chain of cynomolgus monkey PD-L1 on CHO-K1 cells overexpressing cynomolgus monkey PD-L1 (cynomolgus monkey) (G7PSE7 entry or part of it limits assumed): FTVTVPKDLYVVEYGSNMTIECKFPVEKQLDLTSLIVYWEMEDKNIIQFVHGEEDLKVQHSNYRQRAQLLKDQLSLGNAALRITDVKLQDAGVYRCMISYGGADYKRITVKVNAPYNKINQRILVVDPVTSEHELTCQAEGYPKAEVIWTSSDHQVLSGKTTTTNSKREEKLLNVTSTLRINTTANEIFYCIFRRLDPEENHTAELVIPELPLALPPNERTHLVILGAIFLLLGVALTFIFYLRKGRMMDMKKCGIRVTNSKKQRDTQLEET
Chain of human PD-L1 on CHO-K1 cells overexpressing human PD-L1 (human) (Q9NZQ7 19-290): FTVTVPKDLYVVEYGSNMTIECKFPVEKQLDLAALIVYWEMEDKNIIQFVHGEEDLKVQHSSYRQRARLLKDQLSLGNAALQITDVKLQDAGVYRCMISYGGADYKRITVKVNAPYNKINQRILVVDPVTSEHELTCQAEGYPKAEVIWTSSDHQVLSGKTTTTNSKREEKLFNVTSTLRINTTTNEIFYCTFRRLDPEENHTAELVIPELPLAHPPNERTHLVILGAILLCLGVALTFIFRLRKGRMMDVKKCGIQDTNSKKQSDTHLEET

Consider hIgG1 (antibody), for which the Maximum MFI in experiment [1] turned out to be 112 MFI; in experiment [2], 86 MFI; in experiment [3], 125 MFI; in experiment [5], 123 MFI; in experiment [6], 595 MFI. Moreover, the EC50 in experiment [4] is 75.9 nM.

By EC50 is commonly meant the concentration that produces a half-maximal response.

The values are drawn from US20240269276A1.
